Measurements as given in patent US11123408B2, “Compositions and methods for treating nonsteroidal anti-inflammatory drug (NSAID) associated coagulopathy, thrombocytopenia, glanzmann's thrombasthenia, and/or thrombosis” (YALE UNIVERSITY, priority 2011, dated 2021).

Assay: Ap3A hydrolysis by NPP enzymes (linked malachite green assay, absorbance change at 259 nm, HPLC)
Format: biochemical
Procedure: NPP4 nucleotide substrates were identified by directly detecting the free phosphate (Pi) product using malachite green (ADP substrate) or by a linked hydrolysis assay with alkaline phosphatase combined with malachite green (lipid substrates and nucleotide substrates without terminal P1) to measure released Pi. 50 μM substrate P1 equivalents (e.g. 25 μM ADP) were treated with 50 nM NPP4 for 1 hr 37 min (lipids) or 3 hr 15 min (all other substrates). For substrates without terminal phosphates, 10 units of calf intestinal alkaline phosphatase (M0290S, 10,000 units/mL, New England Biolabs, Ipswich, Mass.) was added for a final reaction volume of 50 μL. 100 μL of malachite green (BIOMOL GREEN™, Enzo Life Sciences, Plymouth Meeting, Pa.) was added to quench the reactions. The amount of phosphate released was measured by absorbance at 620 nm by a Biotek Synergy Mx plate reader (Winooski, Vt.) in 96-well plates (3679, Corning Inc., Corning, N.Y.) and compared against a phosphate standard curve.
The kinetics of the steady state Ap3A/Ap4A cleavage by NPP4 was measured from time courses of absorbance change at 259 nm using a UV spectrophotometer with a 0.1 cm optical path length cuvette or a stopped-flow device with a 0.2 cm optical path length cell. The enzymology reactions in 50 mM Tris pH 8.0, 140 mM NaCl, 5 mM KCl, 1 mM MgCl2 and 1 mM CaCl2 were started by addition of 1 μM NPP4 to varying concentrations of Ap3A/Ap4A (up to 800 μM) solution (UV spectrophotometer) or by rapid mixing of NPP4 and Ap3A/Ap4A (stopped-flow). The substrate concentrations higher than 800 μM have absorption too high to be measured by a UV spectrophotometer and stopped-flow, and were therefore measured by HPLC. […] Therefore, the rate of a product production or enzyme turnover measured by the absorption change assay can be calculated by the rate of absorption change
[formula] according to the following formula;
[formula] where Δl is optical path length. The following absorption coefficients were used: Ap3A: 25.75 mM^−1 cm^−1. Ap4A: 25.4 mM^−1 cm^−1. AMP, ADP, and ATP: 15.4 mM^−1 cm^−1. ADP Receptor Inhibitor Assay for NPP4 Inhibition
The HPLC protocol used to measure Ap3A/Ap4A cleavage by NPP4 and for product identification is modified from that of Stocchi et al. (1985, Anal Biochem 146:118-24). The reactions containing varying concentrations of Ap3A/Ap4A in the same buffer as in the absorbance change assay were started by addition of 0.2-1 μM NPP4 and quenched at various time points by equal volume of 3 M formic acid, or 0.5 N KOH and re-acidified by glacial acetic acid to pH 6. The quenched reaction solution was diluted systematically and loaded a HPLC system (Waters, Milford Mass.) and substrates and products were monitored by UV absorbance at 254 or 259 nm. Substrates and products were separated on a C18, 5 μm 250×4.6 mm HPLC column (Higgins Analytical, Mountain View, Calif.), using 15 mM ammonium acetate pH 6.0 solution, with a 0% to 10% (or 20%) methanol gradient. The products and substrate were quantified according to the integration of their correspondent peaks and the formula:
[formula] where [substrate]0 is the initial substrate concentration. The extinction coefficients of Ap3A, Ap4A, AMP, ADP and ATP used in the formula were the same as those used in absorption change assay. If monitoring at 254 nm, substrate and product standards run on the same day as the reactions were used to convert integrated product/substrate peak areas to concentrations. […]

B1: NPP4: soluble recombinant extracellular domain of human NPP4 (NCBI AAH18054.1, residues 1-407 of SEQ ID NO:1), expressed in insect cells (protein, listed as Homo sapiens)
chain: MKLLVILLFSGLITGFRSDSSSSLPPKLLLVSFDGFRADYLKNYEFPHLQNFIKEGVLVEHVKNVFITKTFPNHYSIVTGLYEESHGIVANSMYDAVTKKHFSDSNDKDPFWWNEAVPIWVTNQLQENRSSAAAMWPGTDVPIHDTISSYFMNYNSSVSFEERLNNITMWLNNSNPPVTFATLYWEEPDASGHKYGPEDKENMSRVLKKIDDLIGDLVQRLKMLGLWENLNVIITSDHGMTQCSQDRLINLDSCIDHSYYTLIDLSPVAAILPKINRTEVYNKLKNCSPHMNVYLKEDIPNRFYYQHNDRIQPIILVADEGWTIVLNESSQKLGDHGYDNSLPSMHPFLAAHGPAFHKGYKHSTINIVDIYPMMCHILGLKPHPNNGTFGHTKCLLVDQWCINLPEA
Ap3A cleavage / hydrolysis (qualitative) (linked assay or steady state enzymatic studies): detected cleavage | maximum catalytic turnover rate (kcat) for Ap3A (substrate Ap3A): ~4 s⁻¹ | kcat, Ap3A Hydrolysis by NPP4 (substrate Ap3A, steady state): 4.2 s^−1NPP4^−1 | Km (substrate Ap3A, steady state, read-out: KM, Ap3A Hydrolysis by NPP4): 843 µM
